In US20150098945A1 (Daiichi Sankyo, published 2015):

Molecular target: T1, N-terminal FLAG-tagged human ROBO4 extracellular region/domain deletion variant hROBO4-225 (human, UniProt Q8WZ75 225-1007)
T1 construct: On transfected HEK293 cells
T1 sequence: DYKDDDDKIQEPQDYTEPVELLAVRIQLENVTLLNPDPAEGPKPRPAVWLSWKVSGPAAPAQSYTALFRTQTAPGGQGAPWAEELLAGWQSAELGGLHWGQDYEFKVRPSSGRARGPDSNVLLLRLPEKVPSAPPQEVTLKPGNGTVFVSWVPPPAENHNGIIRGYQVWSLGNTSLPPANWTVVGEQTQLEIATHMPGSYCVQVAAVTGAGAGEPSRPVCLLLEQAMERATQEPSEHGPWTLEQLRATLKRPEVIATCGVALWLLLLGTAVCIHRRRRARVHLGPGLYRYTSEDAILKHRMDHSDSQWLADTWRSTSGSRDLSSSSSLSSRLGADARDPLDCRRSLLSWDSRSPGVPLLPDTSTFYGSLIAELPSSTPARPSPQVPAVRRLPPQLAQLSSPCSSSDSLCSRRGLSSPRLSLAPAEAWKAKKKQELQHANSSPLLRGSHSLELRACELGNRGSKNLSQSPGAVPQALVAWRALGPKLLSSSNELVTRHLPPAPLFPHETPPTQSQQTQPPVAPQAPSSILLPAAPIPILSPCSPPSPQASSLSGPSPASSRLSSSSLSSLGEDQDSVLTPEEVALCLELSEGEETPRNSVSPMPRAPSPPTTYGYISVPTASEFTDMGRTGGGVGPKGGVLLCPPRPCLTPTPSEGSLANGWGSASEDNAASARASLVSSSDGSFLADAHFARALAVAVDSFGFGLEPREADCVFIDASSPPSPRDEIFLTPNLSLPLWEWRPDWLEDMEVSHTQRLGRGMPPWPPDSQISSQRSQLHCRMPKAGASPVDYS
Experiment: flow cytometry, HEK293 cells transfected with pCI-FLAG-hROBO4-225, anti-mouse IgG FITC; control histogram IgG (Mouse IgG2a)
Procedure: Each cell suspension prepared in 4)-5-1 was centrifuged, and the supernatant was removed. Then, MAb1, a positive control Monoclonal ANTI-FLAG M2 antibody produced in mouse, or a negative control Mouse IgG2a was added at a concentration of 10 μg/mL to 2×10⁵ expression vector-transfected cells, and the resulting suspension was left standing at 4° C. for 1 hour. The cells were washed once with PBS containing 5% FBS. Then, Anti-Mouse IgG FITC conjugate diluted 1000-fold with PBS containing 5% FBS was added thereto, and the resulting suspension was left standing at 4° C. for 1 hour. The cells were washed with three times with PBS containing 5% FBS, then resuspended in PBS containing 5% FBS, and subjected to detection using a flow cytometer (BD FACSCalibur; BD Biosciences). Data was analyzed using Flowjo. The histogram of FITC fluorescence intensity was prepared. The antibody was determined to bind to a cell when the histogram of MAb1 was shifted to a stronger fluorescence intensity region compared with the histogram of the negative control Mouse IgG2a. […] In this context, each intracellular region/domain deletion variant was confirmed to be expressed on the cell membrane using the positive control anti-FLAG antibody (FIG. 9).

binding result: no binding (tested: 10 µg/mL)
B1: anti-ROBO4 mouse monoclonal antibody MAb1 (antibody, mouse IgG1, V domains shown)
VH: EVQLVESGGGLVKPGGSLKLSCAASGFTFSTYAMSWVRQTPEKRLEWVATISNGGTYTYYPDSVKGRFTISRDNAENTLYLQMSSLRSEDTAMYFCARLIYYDYLDYWGHGTTLTVSS
VL: DAVMTQTPLSLPVSLGDQASISCRSSQSLENSNGNTYLNWYFQKPGQSPQLLIYRVSNRFSGVLDRFSGSGSGTDFTLKISRVEAEDFGVYFCLQVTHVPWTFGGGTKLEIKR
notes: Mouse IgG1 (gamma1), kappa light chain, purified from hybridoma supernatant; also called parent antibody MAb1
